{"source": "patent US20250295571A1", "about": "“COMPOSITIONS AND METHODS FOR STIMULATION OF HAIR GROWTH” (THE REGENTS OF THE UNIVERSITY OF CALIFORNIA, priority 2022, published 2025)", "molecules": {"B1": {"name": "rhSCUBE3: recombinant human SCUBE3 (Signal Peptide, CUB Domain And EGF Like Domain Containing 3) protein (protein, listed as Homo sapiens)", "chain": "CGGELGEFTGYIESPNYPGNYPAGVECIWNINPPPKRKILIVVPEIFLPSEDECGDVLVMRKNSSPSSITTYETCQTYERPIAFTARSRKLWINFKTSEANSARGFQIPYVTYDEDYEQLVEDIVRDGRLYASENHQEILKDKKLIKAFFEVLAHPQNYFKYTEKHKEMLPKSFIKLLRSKVSSFLRPYK"}}, "key": {"mouse host HFs": {"tested_on": "mouse host HFs", "test": "Human occipital scalp HF-on-SCID mouse xenograft model, adjacent mouse host HFs", "type": "in vivo", "details": "three daily doses on post-grafting day 30; counted on post-grafting day 50; compared to BSA (n=5), rhSCUBE3 n=6", "text": "(§1) FIGS. 2A-2I. SCUBE3 induces hair growth. (2A) Expression of pan-isoform Scube3 mRNA in dorsal mouse skin at indicated postnatal time points. (2B) Time course analysis of dorsal hair growth patterns in representative control (top) and Scube3^−/− mice (bottom) between days P24-30. Mice were shaved before each round of photography. (2C) Representative images of microinjection sites for BSA (top) and rhSCUBE3 (bottom). Affi-gel blue agarose beads are visible. Newly growing anagen HFs are pigmented. (2D) Quantification of induced anagen HFs in response to rhSCUBE3 on day 14. n=7; *** P<0.0002. (2E) Representative images of microinjection sites for BSA (left) and rhSCUBE3 (right) on 20-month-old mice. Affi-gel blue agarose beads are visible. Newly growing anagen HFs are pigmented. (2F) Quantification of induced anagen HFs in aged mice on day 14 after protein injection. n=9; * P<0.0001. (2G) Expression of K14, KI67 and SCUBE3 mRNA in human anagen occipital scalp HF. […] (2I) Scattered plot of human and mouse anagen HF quantification. […]\n(§2) To start evaluating the translational potential of SCUBE3, first we examined its expression pattern in human anagen HFs from occipital scalp of volunteer donors, undergoing autologous hair transplantation procedures. […] Anagen phase human and adjacent mouse host HFs were then counted at each injection site on post-grafting day 50. […]"}, "anagen HFs [1]": {"tested_on": "anagen HFs", "test": "Intradermal protein microinjection in aged mice over 20 months of age, induced anagen HFs on day 14", "type": "in vivo, mouse", "details": "day 14 after protein injection, n=9", "text": "(§3) FIGS. 2A-2I. SCUBE3 induces hair growth. (2A) Expression of pan-isoform Scube3 mRNA in dorsal mouse skin at indicated postnatal time points. (2B) Time course analysis of dorsal hair growth patterns in representative control (top) and Scube3^−/− mice (bottom) between days P24-30. Mice were shaved before each round of photography. (2C) Representative images of microinjection sites for BSA (top) and rhSCUBE3 (bottom). Affi-gel blue agarose beads are visible. Newly growing anagen HFs are pigmented. (2D) Quantification of induced anagen HFs in response to rhSCUBE3 on day 14. n=7; *** P<0.0002. (2E) Representative images of microinjection sites for BSA (left) and rhSCUBE3 (right) on 20-month-old mice. Affi-gel blue agarose beads are visible. Newly growing anagen HFs are pigmented. (2F) Quantification of induced anagen HFs in aged mice on day 14 after protein injection. n=9; * P<0.0001. (2G) Expression of K14, KI67 and SCUBE3 mRNA in human anagen occipital scalp HF. SCUBE3 mRNA is specifically and highly expressed in DP and adjacent dermal sheath cup. (2H) Representative images of microinjection sites for BSA and rhSCUBE3 in human occipital scalp HF-on-SCID mouse xenograft model. (2I) Scattered plot of human and mouse anagen HF quantification. Striped dots represent rhSCUBE3-injected samples and solid dots represent BSA-injected samples. Tissue sections were counterstained with DAPI in 2A, 2G. […]"}, "[2]": {"tested_on": "grafted human occipital scalp HFs", "test": "Human occipital scalp HF-on-SCID mouse xenograft model, grafted human HFs", "type": "in vivo", "details": "three daily doses on post-grafting day 30; counted on post-grafting day 50; compared to BSA (n=5), rhSCUBE3 n=6", "text": "as §1, §2"}, "anagen HFs [3]": {"tested_on": "anagen HFs", "test": "Intradermal microinjection of protein in mice starting at P48, induced anagen HFs counted on day 14", "type": "in vivo, mouse", "details": "intradermally microinjected for four days starting at P48; compared on day 14 to BSA; n=7", "text": "as §3"}}}
{"molecule": "B1", "values": [{"measurement": "new anagen of mouse host HFs", "setting": "mouse host HFs", "result": "stimulated new anagen of mouse host HFs"}, {"measurement": "new hair growth at the injection sites (induced anagen HFs), mean difference vs BSA", "setting": "anagen HFs [1]", "result": "31.78+/−2.40"}, {"measurement": "anagen entry of grafted human HFs", "setting": "[2]", "result": "accelerated anagen entry of grafted human HFs"}, {"measurement": "new hair growth (induced anagen HFs), mean difference compared to BSA", "setting": "anagen HFs [3]", "result": "18+/−3.44"}]}
